Experiment [1] has as its target T1, MICB005.His (human MICB*005 alpha 3 domain, His tagged) (human).
T1 construct: also called huMICB*005 alpha 3-his
T1 chain: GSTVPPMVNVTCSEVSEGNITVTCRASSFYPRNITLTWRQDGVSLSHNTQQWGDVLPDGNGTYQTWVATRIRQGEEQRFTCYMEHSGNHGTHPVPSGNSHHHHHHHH
Description: ELISA, coated antigen. In general terms: ELISA stands for enzyme-linked immunosorbent assay.

The target of experiment [2] is T2, MICA.008.a3.R202-S297.R202N mIgG2a.Glyco11 (human; mouse, UniProt Q29983 203-297, engineered N-linked glycosylation site R202N).
T2 construct: not shown: murine IgG2a Fc
T2 chain: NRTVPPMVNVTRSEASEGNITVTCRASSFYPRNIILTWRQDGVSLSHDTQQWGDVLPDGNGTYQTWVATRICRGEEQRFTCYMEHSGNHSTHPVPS
Briefly: ELISA, coated variant.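 Further: ELISA with plates coated at 2 ug/ml with MICA*008 alpha 3 glycosylation variants as murine IgG2a Fc fusions, antibody binding detected by HRP anti-human IgG Fc and TMB absorbance.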

Experiment [3] addresses T3, MICA.008.a3.T204-S297.E215N.mIgG2a.Glyco12 (human; mouse, UniProt Q29983 204-297, engineered N-linked glycosylation site E215N).
T3 construct: not shown: murine IgG2a Fc
T3 chain: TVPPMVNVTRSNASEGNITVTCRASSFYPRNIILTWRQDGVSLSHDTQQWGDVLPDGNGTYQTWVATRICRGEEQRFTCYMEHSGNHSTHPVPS
Briefly: ELISA, coated variant.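 Further: ELISA with plates coated at 2 ug/ml with MICA*008 alpha 3 glycosylation variants as murine IgG2a Fc fusions, antibody binding detected by HRP anti-human IgG Fc and TMB absorbance.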

Experiment [4] concerns the target T4, MICA.008.a3.T204-S297.I236T.mIgG2a.Glyco13 (human; mouse, UniProt Q29983 204-297, engineered N-linked glycosylation site created by I236T).
T4 construct: not shown: murine IgG2a Fc
T4 chain: T3 chain with N12E, I33T
Description: ELISA, coated variant.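 Further: ELISA with plates coated at 2 ug/ml with MICA*008 alpha 3 glycosylation variants as murine IgG2a Fc fusions, antibody binding detected by HRP anti-human IgG Fc and TMB absorbance.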

In experiment [5] the target is T5, MICA.008.a3.T204-S297.G243N.mIgG2a.Glyco14 (human; mouse, UniProt Q29983 204-297, engineered N-linked glycosylation site G243N).
T5 construct: not shown: murine IgG2a Fc
T5 chain: T3 chain with N12E, G40N
Description: ELISA, coated variant.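 Further: ELISA with plates coated at 2 ug/ml with MICA*008 alpha 3 glycosylation variants as murine IgG2a Fc fusions, antibody binding detected by HRP anti-human IgG Fc and TMB absorbance.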

Experiment [6] concerns the target T6, MICA.008.a3.T204-S297.R279N.mIgG2a.Glyco16 (human; mouse, UniProt Q29983 204-297, engineered N-linked glycosylation site R279N).
T6 construct: not shown: murine IgG2a Fc
T6 chain: T3 chain with N12E, R76N
Description: ELISA, coated variant.

The target of experiment [7] is T7, MICA.008.a3.T204-S297.C-terminal insert of N298.G299.S300.mIgG2a.Glyco17 (human; mouse, UniProt Q29983 204-297, engineered N-linked glycosylation site at inserted N298).
T7 construct: not shown: murine IgG2a Fc
T7 chain: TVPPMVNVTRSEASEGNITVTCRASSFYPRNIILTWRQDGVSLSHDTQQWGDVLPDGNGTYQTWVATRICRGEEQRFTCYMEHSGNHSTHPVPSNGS
Briefly: ELISA, coated variant.

Experiment [8] deals with T8, MICA008.His (human MICA*008 alpha 3 domain, His tagged) (human).
T8 construct: Also used for FPOP (expressed in CHO); also called huMICA*008 alpha 3-his; MICA*008 a3
T8 chain: T1 chain with C12R, V15A, T35I, N48D, R72C, Q73R, G90S
Description: SPR, antibody captured. (In general: Surface plasmon resonance follows binding to a sensor surface in real time, without labels.)

For experiment [9], the target named is T9, MICA002.His (human MICA*002 alpha 3 domain, His tagged) (human).
T9 construct: also called huMICA*002 alpha 3-his
T9 chain: T1 chain with C12R, V15A, S28G, R32W, T37S, N48D, R72C, G90S
Briefly: SPR, antibody captured.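 Further: SPR with antibody held by surface-bound anti-Fc while His-tagged alpha three domains flow over, Kd derived by fitting a one-to-one binding model to sensograms.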

The target of experiment [10] is T10, MICA004.His (human MICA*004 alpha 3 domain, His tagged) (human).
T10 construct: also called huMICA*004 alpha 3-his
T10 chain: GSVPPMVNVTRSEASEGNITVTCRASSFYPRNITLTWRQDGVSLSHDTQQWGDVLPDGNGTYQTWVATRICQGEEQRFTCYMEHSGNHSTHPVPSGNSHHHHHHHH
Briefly: SPR, antibody captured.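 Further: SPR with antibody held by surface-bound anti-Fc while His-tagged alpha three domains flow over, Kd derived by fitting a one-to-one binding model to sensograms.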

Experiment [11] concerns the target T11, MICA*008 on MEL-JUSO cells (human, UniProt Q29983 24-317).
T11 chain: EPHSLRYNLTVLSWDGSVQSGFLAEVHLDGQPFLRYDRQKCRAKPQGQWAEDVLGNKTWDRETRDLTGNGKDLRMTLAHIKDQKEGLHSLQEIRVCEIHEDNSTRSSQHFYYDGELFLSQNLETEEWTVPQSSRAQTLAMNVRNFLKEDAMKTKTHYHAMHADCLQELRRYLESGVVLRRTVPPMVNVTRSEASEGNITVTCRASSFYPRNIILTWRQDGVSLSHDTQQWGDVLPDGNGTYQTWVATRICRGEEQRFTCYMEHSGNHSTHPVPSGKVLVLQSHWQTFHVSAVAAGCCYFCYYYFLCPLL
Description: cell-based or functional assay.

Experiment [12] concerns the target MICA*004 on HCC1534 cells (human, UniProt Q29983 24-383). Briefly: cell-based or functional assay.
The target in experiment [13] is T12, human MICA*008 C273S alpha 3 domain, untagged (crystallography) (human, UniProt Q29983 204-297).
T12 construct: C273S removes the unpaired cysteine; made as the wild-type alpha 3 domain; also called MICA*008 C273S α3 domain
T12 chain: T3 chain with N12E, C70S
Description: complex purified by size exclusion, X-ray structure.

The target of experiment [14] is T13, MICA*008 on MEL-JUSO cells (human, UniProt Q29983 24-317).
T13 chain: T11 chain
Description: cell-based or functional assay.

Experiment [15] addresses T14, MICA*004 on HCC1534 cells (human, UniProt Q29983 24-383). Description: cell-based or functional assay. The source holds these as a separate data set.
Experiment [16] concerns the target MICB*005 on HCC1534 cells (human). Description: cell-based or functional assay.
The next experiment deals with MICA*002 on PANC-1 cells (human, UniProt Q29983 24-383). Description: cell-based or functional assay.
The target in experiment [17] is T13, MICA*008 on MEL-JUSO cells. Briefly: cell-based or functional assay.
The target of experiment [18] is T14, MICA*004 on HCC1534 cells. Description: cell-based or functional assay. The source holds these as a separate data set.
Experiment [19] concerns the target MICB*005 on HCC1534 cells (human). Briefly: cell-based or functional assay. This is another data set of the same source.
Experiment [20] concerns the target T15, huMICA*002 alpha 3-his (human).
T15 construct: whole construct entry: GS, alpha 3 domain, GNS, His8; also called MICA002.His; MICA*002 alpha3 construct
T15 chain: T1 chain with C12R, V15A, S28G, R32W, T37S, N48D, R72C, G90S
Description: SPR, Biacore 8K, antibody on Protein A chip.

Experiment [21] addresses T16, huMICA*004 alpha 3-his (human).
T16 construct: whole construct entry: GS, alpha 3 domain, GNS, His8; also called MICA004.His; MICA*004 alpha3 construct
T16 chain: T10 chain
Description: SPR, Biacore 8K, antibody on Protein A chip.

Experiment [22] concerns the target T17, huMICA*008 alpha 3-his (human).
T17 construct: whole construct entry: GS, alpha 3 domain (Thr204-Ser297), GNS, His8; also the construct of the FPOP experiment; also called MICA008.His; MICA*008 alpha3 construct
T17 chain: T1 chain with C12R, V15A, T35I, N48D, R72C, Q73R, G90S
Briefly: SPR, Biacore 8K, antibody on Protein A chip.

Experiment [23] addresses T18, huMICB*005 alpha 3-his (human).
T18 construct: whole construct entry: GS, alpha 3 domain, GNS, His8; also called MICB005.His; MICB*005 alpha3 construct
T18 chain: T1 chain
Description: SPR, Biacore 8K, antibody on Protein A chip.

Experiment [24] concerns the target T15, huMICA*002 alpha 3-his. Description: 'Affinity (nM)' row of Table 17; method not stated.
Experiment [25] concerns the target T16, huMICA*004 alpha 3-his. Description: 'Affinity (nM)' row of Table 17; method not stated.
Experiment [26] deals with T18, huMICB*005 alpha 3-his. Briefly: 'Affinity (nM)' row of Table 17; method not stated.
The target of experiment [27] is T17, huMICA*008 alpha 3-his. Description: 'Affinity (nM)' row of Table 17; method not stated; MICA*008 allele (column of the MEL-JUSO shedding assay).

Results on three molecules are retold here after US20200055939A1 (Genentech, published 2020).

Changes are numbered by the printed parent chain.

As a reminder, the Kd is the concentration at which binding is half-saturated. A low value points to tighter binding. The term % Inhibition denotes the relative decrease from the control value, in per cent. Read a low % Inhibition as a weak effect.

B1: 6E12.5 (antibody, V domains shown)
VH: EVQLVESGGGLVKPGGSLKLSCAASGFTFSDYYMYWVRQTPEKRLEWVATISDGITYTYYSDSVRGRFTISRDNAENTLYLQMSSLKSEDTAMYYCSKGGGSTARGALDFWGQGTSVTVSS
VL: DIQMNQSPSSLSASLGDTITITCHASQNIHVWLSWYQQKPGNIPKLLIYGASHLHTGVPSRFSGRGSGTGFTLTISSLQPEDIATYYCLQGQSYPLTFGSGTKVEIK
notes: Mouse hybridoma antibody; constant regions differ by assay
Turning to B1, the binding result in experiment [1], in experiment [2], in experiment [3], in [4], in experiment [5] and in experiment [6] was “binds” in each case. Moreover, in experiment [7], the binding result was “binds”. In addition, the equilibrium dissociation constant (Kd) was found to be 15.1 nM in experiment [8], 4.5 nM in [9] and 3 nM in experiment [10]. For the same molecule, the “% max inhibition of shedding” value in experiment [11] is 28%; in experiment [12], 37%. Moreover, the “EC50 of shedding inhibition” value in [11] worked out at 0.074 µg/mL; in [12], 0.329 µg/mL.

B2: 6E1.1.12 Fab (Fab, V domains shown)
VH: QGQMQQSGAELVKPGASVKLSCKTSGFTFSDNYISWLKQKPGQSLEWIAWIYAGTGGSSYNQKFRDKAQLTVDTSSRTAYMQLSSLTTEDSAIYYCARHDYYGTSGAWFAYWGRGTLVTVSA
VL: DVLMTQTPLSLPVSLGDQASISCRSSQHIVHSNENTYLEWYLQKPGQSPKLLIYKVSNRFSGVPDRFSGSGSGTDFTLKISRVEAEDLGVYYCFQGSHVPWTFGGGTKVEIK
notes: Expressed in E. coli; the fraction with glutamine (not pyroglutamate) at the heavy chain N-terminus was crystallised; also called 6E1 Fab; not shown: human IgG1 CH1 constant domain; human kappa CL constant domain
B2: the binding result in experiment [13] is “binds”.

B3: 1D5 (antibody, V domains shown)
VH: EIQLQQSGPELVKPGASVKVSCKASGYAFTSQNIYWVKQSHGKSLEWIGYIEPYNVVPMYNPKFKGKATLTVDKSSSSAYIHLNSLTSEDSAIYYCARSGSSNFDYWGQGTTLTVSS
VL: EIILTQSPTTMAASPGEKITITCSASSSISSHYLHWYQQKSGFSPKLLIYRTSNLASGVPARFSGSGSGTSYSLTIGTMEAEDVATYYCQQGSSLPLTFGAGTKVEIK
notes: mouse variable domains; also called anti-MIC 1D5
As to B3, the “IC50 (mg/mL), cell shedding assay” value came to 0.00823 mg/mL in experiment [14], 0.0247 mg/mL in [15], 0.0293 mg/mL in experiment [16] and 0.0291 mg/mL with MICA*002 on PANC-1 cells. Moreover, the “Max inhibition, cell shedding assay” value in experiment [14] worked out at 81%; in [15], 70%; in [16], 52%; with MICA*002 on PANC-1 cells, 53%. The “% Inhibition” value in experiment [17] amounted to 69%; in experiment [18], 52%; in experiment [19], 49%. Also, the dissociation constant (Kd) worked out at 0.83 nM with huMICA*002 alpha 3-his [20]; 0.63 nM with huMICA*004 alpha 3-his [21]; 0.61 nM with huMICA*008 alpha 3-his [22]; 0.95 nM in the experiment with huMICB*005 alpha 3-his [23]; 0.82 nM with huMICA*002 alpha 3-his [24]; 0.56 nM with huMICA*004 alpha 3-his [25]. For the same molecule, the dissociation constant (Kd) came out at 2.28 nM with huMICB*005 alpha 3-his [26] and 0.54 nM in the experiment with huMICA*008 alpha 3-his [27].
